The data set can be described thus: yeast display, Sf9 membrane polyspecificity reagent, FACS + sequencing; frameworks hold sequencing errors. In outline:
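A nanobody's polyreactivity label depends on the gate it was sorted from. Yeast display cells were stained with 10% biotinylated, detergent-solubilized Sf9 membrane reagent for 1 hour at 4 °C, enriched on streptavidin microbeads and sorted by FACS. The low and high (top ~1%) gates were set on anti-HA fluorescence for expression and streptavidin fluorescence for reagent binding.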
Regarding “QVQLVESGGGLVQAGGSLRLSCAASGSTFTKYTMGWYRQAPGKERELVAAITSSGGSTYYADSVKGRFTISRDNAKNTVYLQMNSLKPEDTAVFYCAAPALYYYYYYGYDYWGQGTQVTVSS”, the “polyreactivity (PSR sort gate)” value is “high polyreactivity”.

Regarding “QVQLVESGGGLVQAGGSLRLSCAASGSTFTLNAMGWYRQAPGKERELVADISWSSGRTYYADSVKGRFTISRDNAKNTVYLQMNSLKPEDTAVYYCATYDFWNVKFYAYYPEFDYWGQGTQVTVSS”, the “polyreactivity (PSR sort gate)” value is “low polyreactivity”.

In the case of “QVQLVESGGGLVQAGGSLRLSCAASGSTFTLYAMGGYIQAPGKERELVAAITSDDSTYYADSVKGRFTISRDNAKNTVYLQMNSLKPEDTAVYYCAADVYYGDFEMDYWGQGTQVTVSS”, the “polyreactivity (PSR sort gate)” value is on record as “low polyreactivity”.

As to “QVQLVESGGGLVQAGGSLRLSCAASGSTFTLYAMGWYRKAPGKERELVAAISRSGGRTYYADSVKGRFTISRDNAKNTVYLQMNSLKPEDTAVYYCNAPYKQDYDYWGQGTQVTVSS”, the “polyreactivity (PSR sort gate)” value is on record as “high polyreactivity”.

As to “QVQLVESGGGLVQAGGSLRLSCAASGSTFTLYAMGWYRQAPGKERELVAAISGIGDSTYYADSVKGRFTISRDYAKNNVYLQKNSLKPEDTAVYYCAADGEYRYDWEYESWGQGTHVTVSS”, the “polyreactivity (PSR sort gate)” value is listed as “low polyreactivity”.

As for “QVQLVESGGGLVQAGGSLRLSCAASGSTFTLYAMGWYRQAPGKERELVATITGSGGSTNYADSVKGRFTISRDNAKNTVYLQMNSLKPEDTAVYYCAADYAVYSFTDFNYWGQGTQVTVSS”, the “polyreactivity (PSR sort gate)” value was “high polyreactivity”.

Consider “QVQLVESGGGLVQAGGSLRLSCAASGSTFTLYAMGWYRQAPGKERELVATITGSGGSTNYADSVKGRFTISRDNAKNTVYLQMNSLKPEDTAVYYCAADYAVYSFTEFNYWGQGSQVTVSS”, for which the “polyreactivity (PSR sort gate)” value is “high polyreactivity”.

Consider “QVQLVESGGGLVQAGGSLRLSCAASGSTFTNYAMGWYRQAPGKERELVAAINNDRTNYADSVKGRFTISRDNAKNTVYLQMNSLKPEDTAVYYCAAQWRVYGYKISRRNYWGQGTQVTVSS”, for which the “polyreactivity (PSR sort gate)” value is reported as “high polyreactivity”.

Consider “QVQLVESGGGLVQAGGSLRLSCAASGSTFTPYAMGWYRQVPGKERELVASITIGGSTYADSVKGRFTISRDNSKNTVYLQMNSLKPEDTAVYYCNADWNWYPFLYSRMDYWGQGTQVTVSS”, for which the “polyreactivity (PSR sort gate)” value was “low polyreactivity”.

“QVQLVESGGGLVQAGGSLRLSCAASGSTFTQNAMGWYRQAPGKERELVAAIDRRGGSTYYADSVKGRFTISRDNAKNTVYLQMNSLKPEDTAVYYCAASFSYNRPKRFTHNYEYWGQGTQVTVSS”: the “polyreactivity (PSR sort gate)” value is on record as “low polyreactivity”.

For “QVQLVESGGGLVQAGGSLRLSCAASGSTFTRNPLGWYRQAPGKERELVATISRSGGSTYYADSVKGRFTISRDNAKNTVYLQMNSLKPEDTAVYYCARPYQYYKFYSHDYWGQGTQVTVSS”, the “polyreactivity (PSR sort gate)” value is recorded as “high polyreactivity”.

As to “QVQLVESGGGLVQAGGSLRLSCAASGSTFTRYAMGWYRQAPGKERELVAAITRSGGGTYYADSVKGRFTISRDNAKNTVYLQMNSLKPEDTAVYYCAKDIVFYGAPGYGYWGQGTQVTVSS”, the “polyreactivity (PSR sort gate)” value is given as “high polyreactivity”.

“QVQLVESGGGLVQAGGSLRLSCAASGSTFTRYAMGWYRQAPGTERECVAGITSIGGRTYYADSVKGRFTISRDNAKNTVYLQMNSLKPEDTAVYYCAKRWGRYYYPYDYWGQGTQVTVSS”: the “polyreactivity (PSR sort gate)” value is given as “high polyreactivity”.

With “QVQLVESGGGLVQAGGSLRLSCAASGSTFTSYTMGWYRQAPGKERELVAAISRGGGRTYYADSVKARFTISRDNAKNTVYLQMYRLNPEDTAVYYCNKVLRGDRAGPGYDHWGLGTQVTVSS”, the “polyreactivity (PSR sort gate)” value was “high polyreactivity”.

Take “QVQLVESGGGLVQAGGSLRLSCAASGSTFTTYAMGWYRQAPGKERELVAVITDSGGTYYADSVQGRFTISRDNAKNTVYLQMNSLKPEDTAVYYCNRVFPPTDYEFDSWGQGTQVTVSS”: the “polyreactivity (PSR sort gate)” value is recorded as “low polyreactivity”.

Consider “QVQLVESGGGLVQAGGSLRLSCAASGSTFTTYGMGWYRQAPGKERELVAAISLSSGRTYYADSVKGRFTISRDNAKNTVYLQMNSLKPEDTAVYYCNKRSQKPSQYKPYGYWGQGTQVTVSS”, for which the “polyreactivity (PSR sort gate)” value is “high polyreactivity”.

On to “QVQLVESGGGLVQAGGSLRLSCAASGSTFTWNAMGWYRQAPGKERELVAAISGDGGSTYYADSVKGRFTISRDNAKNTVYLQMNSLKPEDTAVYYCAASSAHIYSYRYNYWGQGTQVTVSS”, for which the “polyreactivity (PSR sort gate)” value is “low polyreactivity”.

Consider “QVQLVESGGGLVQAGGSLRLSCAASGSTFTYNAMGWYRQAPGKERELVASISSGTTTYYADSVKGRFTISRDNAKNTVYFQMHSLKPEDTAVYYCAVDSWSRVQGWLAHNYDYWGQGTQVTVSS”, for which the “polyreactivity (PSR sort gate)” value is given as “low polyreactivity”.

Consider “QVQLVESGGGLVQAGGSLRLSCAASGSTFTYYAMGWSRQAPGKERELVAVINKSGGRTNYADSVKGRFTISRDNPKNTVYLQMNSLKPEDTAVYYCNAYYTSFYTGDDYWGQGTQVTVSS”, for which the “polyreactivity (PSR sort gate)” value is “high polyreactivity”.

Turning to “QVQLVESGGGLVQAGGSLRLSCAASGSTFTYYAMGWSRQEPGIEREFVAAISRRGGSTYYADSVKGRFTISRDNAMNTVYLQMKSLKQEDTPVYYCNVVIYSYGINGRYDYWGQGTQDTVSS”, the “polyreactivity (PSR sort gate)” value is listed as “high polyreactivity”.

Consider “QVQLVESGGGLVQAGGSLRLSCAASGSTFTYYAMGWYRQAPGKERELVAAITSRGGITYYADSVKGRFTISRDNAKNTVYLQMHSLKPEDTAVYYCNAYSQRYGYYYWGQGTQVTVSS”, for which the “polyreactivity (PSR sort gate)” value is listed as “high polyreactivity”.

Turning to “QVQLVESGGGLVQAGGSLRLSCAASGSTFTYYTMGWSRQAPGKERELVAASSRTTGSTYYADSVKGRFTISRDNAKNTVYLQMNSLIPEDTAVYYCAAQSYKILLYFIGTAGDGYWGQGTQVTVSS”, the “polyreactivity (PSR sort gate)” value was “low polyreactivity”.

Consider “QVQLVESGGGLVQAGGSLRLSCAASGSTFVAYPMGWYRQAPGKERELVATISSGGNTKYADSVKGRFTISRDNAKNTVYLQMNSVKPEDTAVYYCNAGRYRYRYRSYPYDYWGQGTQVTVSS”, for which the “polyreactivity (PSR sort gate)” value is given as “high polyreactivity”.

Take “QVQLVESGGGLVQAGGSLRLSCAASGSTFVDNAMGWYRQAPGKERELVAAISRGGSTHYADSVKGRFTISRDNAKNTVYLQMNSLKPEDTAVYYCNKDTKRLLWFYKYYYWGQGTQVTVSS”: the “polyreactivity (PSR sort gate)” value is recorded as “high polyreactivity”.

Consider “QVQLVESGGGLVQAGGSLRLSCAASGSTFVDYAMGRYRQAPGKERELVAAITRSGSSTYYADSVKGRFTISRDIAKNTVYLQMNSLKPEDTAVYYCAAVRYRGLQVKFYYWGQGTQVTVSS”, for which the “polyreactivity (PSR sort gate)” value was “high polyreactivity”.

On to “QVQLVESGGGLVQAGGSLRLSCAASGSTFVDYAMGWYRQAPGKERELVAAISFSDGSTYYADSVKGRFTISRDNAKNTVYLQMNSLKPEDTAVYYCAKDAYWGYRWYTYDYWGQGTQVTVSS”, for which the “polyreactivity (PSR sort gate)” value is listed as “low polyreactivity”.

For “QVQLVESGGGLVQAGGSLRLSCAASGSTFVENAMGWYRQAPGKEREVVAAISSSGDSTFYADSVKGRFTISRDNAKNTVYLQMKSLKPEDTAVYYCAADRRINYDGLDMDYWGQGTQVTVSS”, the “polyreactivity (PSR sort gate)” value is listed as “low polyreactivity”.

Regarding “QVQLVESGGGLVQAGGSLRLSCAASGSTFVENAMGWYRQAPGKQRELVAAISSSGDSTFYADSEKGRFTISRDNAKNTVYLQMNSLIPEDTAVYYCAADRRINYDGLDMDYWGQGTQVTVSS”, the “polyreactivity (PSR sort gate)” value is reported as “low polyreactivity”.

In the case of “QVQLVESGGGLVQAGGSLRLSCAASGSTFVGNAMGWYRHAPGKEREMVATISNSGGRTYYADSVKGRFTISRDNAKNTVYLQLNSLKPEDTEVYYCAADHPAFGPGYSFDYWGQGTQVTVSS”, the “polyreactivity (PSR sort gate)” value is given as “low polyreactivity”.

“QVQLVESGGGLVQAGGSLRLSCAASGSTFVGNAMGWYRQAPGKERELVAAITGGGGSTNYADSVKGRFTISRDNAKNTVYLQMNSLKPEDTAVYYCAVEVYYTGFYYSPYAYDYWGQGTQVTVSS”: the “polyreactivity (PSR sort gate)” value is “low polyreactivity”.

For the sequence “QVQLVESGGGLVQAGGSLRLSCAASGSTFVGNAMGWYRQAPGKERELVANITSGGSTNYADSVKGRFTISRDNAKNTVYLQMNSLKPEDTAVYYCAAVYLWSQRREYWGQGTQVTVSS”, the “polyreactivity (PSR sort gate)” value was “low polyreactivity”.

Regarding “QVQLVESGGGLVQAGGSLRLSCAASGSTFVGNAMGWYRQAPGKERELVATMSNSGGRTYYADSVKGRFTISRDNAKNSVYLQMNSLKPEDTAVYFCNAQFDLTFRGTGDYWGQGTQVTVSS”, the “polyreactivity (PSR sort gate)” value is on record as “low polyreactivity”.

With “QVQLVESGGGLVQAGGSLRLSCAASGSTFVGYAMGWYRQAPGKERELVAAISRSGGRTYYADSVKGRFTISRDNAKNTVYLQMNSLKPEETAVYYCYPYYIASTFDYWGQGTQVTVSS”, the “polyreactivity (PSR sort gate)” value is “high polyreactivity”.

Regarding “QVQLVESGGGLVQAGGSLRLSCAASGSTFVGYAMGWYRQAPGKERELVADIDSIGGSTYYADSVKGRFTISRDNAKNTVYLQMNSLKPEDTAVYYCAAYQHPGLRTSYEYWGQGTQVTVSS”, the “polyreactivity (PSR sort gate)” value is recorded as “low polyreactivity”.

On to “QVQLVESGGGLVQAGGSLRLSCAASGSTFVGYAMGWYRQAPGKERELVADITWSGTNTYYADSVKGRFTISRDNAKNTVYLQMNSLKPEDTAVYYCAAELELLLVGFFTYRREYWGQGTQVTVSS”, for which the “polyreactivity (PSR sort gate)” value is reported as “low polyreactivity”.

As to “QVQLVESGGGLVQAGGSLRLSCAASGSTFVGYTMGWYIQAPGKERELVAAISRGGGSTYYADSVKGRFTISRDNAKNTVYLQMNSLKPEDTAVYYCAATGFYARLSSIYYYWGQGTQVTVSS”, the “polyreactivity (PSR sort gate)” value is given as “high polyreactivity”.

As for “QVQLVESGGGLVQAGGSLRLSCAASGSTFVGYVMGWSRQAPGKERELVAAITRSGTSTYYADSVKGRFTISRDNAKNTVYLQMNSLKPEDTAVYYCARRYVSSDYYYWGQGTQVTVSS”, the “polyreactivity (PSR sort gate)” value is on record as “low polyreactivity”.

On to “QVQLVESGGGLVQAGGSLRLSCAASGSTFVHNAMGWYRQAPGKERELVAAISESGGGTYYADSVKGRFKISRDNAKNTVYLQMNSQKPEDTAVYYCAAPPAGENWRDGGGYFGQGTQVTVSS”, for which the “polyreactivity (PSR sort gate)” value is given as “low polyreactivity”.

Regarding “QVQLVESGGGLVQAGGSLRLSCAASGSTFVHYAMGWYRQAPGKERELVAAITISGGRTYYADSVKGRFTISRDNAKNTVYLQMNSLKAEDTAVYYCNADHYHRTWGYDYWGQGTQVTVSS”, the “polyreactivity (PSR sort gate)” value is reported as “low polyreactivity”.

Take “QVQLVESGGGLVQAGGSLRLSCAASGSTFVIYALGWYRQAPGKERELVAALSWSGGRTNYADSVKGRFTISRDNAKNTVYLQLNSLKPEDTAVYYCAAVTGVPYPHGRYKYGYWGQGTQVTVSS”: the “polyreactivity (PSR sort gate)” value is “high polyreactivity”.
